The record followed here is the domain aggregation screens of Martell et al. (2025).
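Note: 20 min heating vs room temperature control held 20 min.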

A short description of this data set: soluble fraction after stress (log2 fold change); higher = more stays soluble; pooled small domains, quantitative proteomics. The settings on record: stress: 75 degC.
Turning to “HMHGLNQNKPIPIADIVNSVNNYLTSLGKKTITDNSVLSNLKKAAKYLNTAYNLVLRPDSLNMTVTLL”, the “soluble fraction (log2)” value is 0.323. The result for “HMHIMINPDQLSPEQIQSIRTWAEEGLDLNAIQKRLHEDLNIKLTFMDTRFLLQDLDIRIRQPEPEPEAEQ” reads -0.208; that for “HMHINLEGLKKIDFRKKIGFLFGSEASGLSNKEVSYANYTLQIPTNINFKSLNLSHSLIIIAQFISSLLNS”, -0.55. As to “HMHKIRRQTKITKSLLDQIEGIGSSRKKALLNHFGSAKAVGEAGETDLGTVKGISNSLAKKIYDFFHAT”, the “soluble fraction (log2)” value is -0.545. Then “HMHLDIGQLVQRILADIQVGKLADGQRKLPAEPVLMERYQVTRYTLRQALKQLSNMGYTYQMHGIGTFVRQ”, with -1.79; and “HMHLKDEHGLTPKQRAFADEYVITLNATVSYKKIYSVKRDSVASTNGSRLLGNANVKAYIDKRLEE”, with -2.26. Then “HMHLKRQEAINLGAYLLGAELRIHRLSLEELGSERIDEMLAAINYKTLDDLLADIGLGNRPARFVARQLG”, with -1.86; and “HMHLLGASIAAYRKKAGMTQEDLGRALFVSGQAVSRWERGGTPDSDMLPKIADVLGISLDTLFGRS”, with -1.57. The result for “HMHLRYTYIYDNENRVTSKEASKWDSTQEAWVPYFKMNVSYVNNEVELSYARWNSKSNAYDSSIKKTI” reads -2.54. For “HMHLTNIPKGFTPSFDTKQWIVEEFGERYNYDNELKIFINHYRASGTTKSDWQYAFRSWLLRAKKFT”, the “soluble fraction (log2)” value is -2.83. Then “HMHLTRYLHTMIRAANLDDTLDFFVEKLGLIEAYRYSNEAGRFTLVFLSAPDDLESAQSRQAPLVEITYN”, with -1.32; and “HMHLYDMYNLTEKEISIIRLIANGLNNKEISQELFLSEGTIKNNITNILAKLELRDRTQLAIFAFKNKIVI”, with -3.6. Then “HMHMELHEKIRLARELNKWSQEEVAEKLEMSPSGYAKIERGETALNIPRLEQIAEIFNIDIWELVKA”, with -1.04. The result for “HMHMHTADDFKQLAKHTSNGRLRTRYLALYHFKKGETRTQIAAYLGVARGSVNTWVSNYLAYGLEGLQS” reads -2.53; that for “HMHMIDDYLARIGQLIRDARQHRGWTQVQLAEALGTSQSAVNRIERGNQNISLEMIARIGEALGSEIVSLG”, -2.24. Consider “HMHMKTIEWDSLVLIMYKDMKYLKRINEGQSFHGKGGMLNYADLIGKTYGIRFGQYEIFEPSLEDIVMYG”, for which the “soluble fraction (log2)” value was -0.0889. The result for “HMHMSKKLADSISALRKKNGLSQEQLAEKIGISRQTVSNWERGIATPDVETLNLISKLFDEDLSVMING” reads -0.073. As to “HMHNISQTGRRIAGMTQERWAEALDISVESVRLYESGRGMPSDDVATRMVEVSGAPVLGYWH”, the “soluble fraction (log2)” value was -0.458. As for “HMHNPSYDMSKDVDILVMKFRDYNNLTDDEARFLLDKAKDAYYNTGKEILSDNEYDTLEKSLGQE”, the “soluble fraction (log2)” value is -0.000671.

“HMHPEPDPVLFIDGKEYPYDKLSELDETRVQSMTILPKKSAVKKYGDKYANRSIMEITLKKEN”: the “soluble fraction (log2)” value came out at 0.119. The result for “HMHPNPLTEQEIAVLKGIAQGLSNQEIADQLYLSNGTVRNYVTNILSKLDAGNRTEAANIAKESGW” reads 0.00139; that for “HMHPSNQELTKVLAQGSELVLAQKYIEASQIFTRVIEIDQTWAEAWNKRATVFYLLQNYEASQKDIDEV”, 0.0525. The result for “HMHQKELLNLSYKEAKRYILDDFERVFFTNLLRKTGGNVSRAAQLAQVHRKNLYVKLTELGIDPRQFG” reads -1.53. Then “HMHQLQLDSRSRLHMTGVIEVESFDEATIVLTTTRGTLIVRGENLHLQLLRLDGGEVLVDGTVDSLSYE”, with -2.67; and “HMHQPPDLDDFEAFVGRVKPALLQALVATYGPVDGREATVDALSWAWEHWDRLADVDHPVGYLYRV”, with -0.0172; and “HMHRFAVLDTVREVAAGGVAATLSIGVGRDADSFDALFKNASMALEMALSRGGDQAVVKDRMNFQFYGG”, with 0.153. “HMHRGEIVDGVIASVNPRSILIDIGGKSDALVHPRELERMSDEDLRSLKPGQDVSVYVIETDSDGTMLVSL”: the “soluble fraction (log2)” value was 0.0809. As for “HMHSEISGGSKDPFRFMPHLGVEDIHAETDRLSGSGVEFIREPDQESWGGWVATFKDPDGNILQLLQL”, the “soluble fraction (log2)” value was 0.197. The result for “HMHSQVFTDPDKAKNAVVKLGAPLVVKADGLALGKGVIIAQNPQAAKEAVASVGSSGISSISVT” reads 0.126; that for “HMHTDDDGITEAFPHLRLLSLGEDILDLLEKSRFIRKLNNELVYYVVDFREQNSIDGRRYHPSIYHNL”, -0.437; that for “HMHTGEVVNGKVIDVKEDQIILNVGFKSDGIITRSEYSNDNSLDLRTVVNVGDDMEAKVLKINDGEGQVLL”, -0.242. As for “HMHTGLAELTDRERDVLRLIATGMTNAAIGSALAYSPSTIRADTVSIYRKLEVRGRAEAAAVAVAAGLTQP”, the “soluble fraction (log2)” value was -1.72. For “HMHTPSGALLSAIEKEWGSFDNFKKEFTTAATSLFGSGWVWLAKDKKGKLYILSENNAGNPITKGYTPILG”, the “soluble fraction (log2)” value is -0.359. Turning to “HMHVLNEEYYNRIKAIQFTMNHDDGNSLNDIEKSDIILLGVSRTSKTPTSIYLANRGLRTSNIPLINEK”, the “soluble fraction (log2)” value was -0.655.

Regarding “HMHVSLADQAYKTIRTNILNLTYPPGTQLTEAKLASDLNMSRSPVRTAIKMLQADGLLVSDYYKSMTVK”, the “soluble fraction (log2)” value was -1.21. Then “HMHVYSYPAAVKIKNAVGREMMVTLLGRSGTHVQFARQDGEEFVYPISSLDLAAQTLISKYPNDGIKN”, with -0.895.

With “HMIAALEGKQAMVLDQVSLHHGQVKLGGEVWTARPLNDQDVYEPGDRVTVMRIDGATAVVWRN”, the “soluble fraction (log2)” value is -0.472. Then “HMIAASPVGGIDRVLELLDARGQRVAWIEASGTEGGQRLRLGWIDAQGAERHGAWVPWSADDLLLYA”, with -0.739; and “HMIAASQVLRDARQRSRLTQAELGRRADVPQSVISAYESARREPSVDMLARLVAAAGFDLRIGLTP”, with -0.755. For the sequence “HMIADPLVINKLMDSMALAINDYNPDSVEPVLDELRQYFSENQLRELSKAMDDFDFDEALNALTLLRT”, the “soluble fraction (log2)” value is -0.185. With “HMIALKNLREEKRMTQAELSKDLEISPSAIGMYEQGRRVPDVSTLKKISAYFNVSIDYLLGNSTSKDI”, the “soluble fraction (log2)” value was -0.626. In the case of “HMIALLRLGTAPDIKAQAPLATILARHNGEMSAKDLWQRFGGEIDTFYAQLKTEVAHGWILEPT”, the “soluble fraction (log2)” value is -2.34. Then “HMIAVLKQGVSKQQVENLITWFRSRGLDVHISEGKFQTIIGLIGDTSKVDIDLLNGLEIIESVKRI”, with -0.344; and “HMIAVSQEQIKQIIVDDPSFHDANGKFSQALLTQYLNQRRMSEDQFVEEIRDQFLFQNLQNLVQNG”, with 0.278; and “HMIDAAHLEKAILSLPEGARAVFVLIETEGFAHREVAELLGISEGTSKSQLNYAKKRLREILV”, with -0.266.

On to “HMIDAKTTLQELTQKSGKKPEYRLIKIEGPDHLRRFTVEVFIDGQSMGTGTGHSKKEAEQNAANFALKNLQ”, for which the “soluble fraction (log2)” value is -0.00455.

For “HMIDEQDLKKYILISTSVEELTDYLGATDRMLYDYLYSLKHVGQYWQLNERFLLDLYKLPNLVIVDKEDLE”, the “soluble fraction (log2)” value is -0.172.

With “HMIDFDEQGNLWVHEMGPRHGDELNLIEKARNYGYPTVSQGDHYSGVKISNHEDIPIFKSPEKAWVPAISP”, the “soluble fraction (log2)” value was -0.228. Then “HMIDFDHADIERLWNSIIHYVPERQKLDFAIDFIKSLEDIGVEHDVLRGSAELDPKLEEAVNTVFE”, with -0.725; and “HMIDIIEYIISEESKGLRADQGIALQNPQYSRSLIQKWIKKGSVLVNNKIIRTKEILLEGDKISITPEENI”, with -0.546.
